Test results published in patent publication US20250186597A1 (BRIGHT PEAK THERAPEUTICS, published 2025).

Assays:
[1] = target: T1, IL-18R on HEK-Blue IL18R reporter cells (InvivoGen, #hkb-hmi118) (UniProt Q13478 19-541; O95256 20-599, limits assumed); test: cell-based or functional assay
T1 sequence (looked up) 1: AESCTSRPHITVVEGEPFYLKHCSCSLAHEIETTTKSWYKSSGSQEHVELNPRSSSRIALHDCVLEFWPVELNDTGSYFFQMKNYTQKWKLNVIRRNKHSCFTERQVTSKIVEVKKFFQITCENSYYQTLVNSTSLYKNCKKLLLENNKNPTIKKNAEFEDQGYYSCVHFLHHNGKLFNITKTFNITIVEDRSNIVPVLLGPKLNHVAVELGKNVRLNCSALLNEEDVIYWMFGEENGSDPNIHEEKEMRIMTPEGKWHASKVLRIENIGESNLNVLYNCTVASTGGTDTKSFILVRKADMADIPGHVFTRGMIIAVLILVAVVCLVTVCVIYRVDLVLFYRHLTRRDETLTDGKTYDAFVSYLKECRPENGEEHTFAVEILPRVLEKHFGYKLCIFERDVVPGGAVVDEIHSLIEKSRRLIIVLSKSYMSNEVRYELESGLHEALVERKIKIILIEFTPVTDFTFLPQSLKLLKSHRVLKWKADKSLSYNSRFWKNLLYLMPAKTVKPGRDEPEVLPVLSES
T1 sequence (looked up) 2: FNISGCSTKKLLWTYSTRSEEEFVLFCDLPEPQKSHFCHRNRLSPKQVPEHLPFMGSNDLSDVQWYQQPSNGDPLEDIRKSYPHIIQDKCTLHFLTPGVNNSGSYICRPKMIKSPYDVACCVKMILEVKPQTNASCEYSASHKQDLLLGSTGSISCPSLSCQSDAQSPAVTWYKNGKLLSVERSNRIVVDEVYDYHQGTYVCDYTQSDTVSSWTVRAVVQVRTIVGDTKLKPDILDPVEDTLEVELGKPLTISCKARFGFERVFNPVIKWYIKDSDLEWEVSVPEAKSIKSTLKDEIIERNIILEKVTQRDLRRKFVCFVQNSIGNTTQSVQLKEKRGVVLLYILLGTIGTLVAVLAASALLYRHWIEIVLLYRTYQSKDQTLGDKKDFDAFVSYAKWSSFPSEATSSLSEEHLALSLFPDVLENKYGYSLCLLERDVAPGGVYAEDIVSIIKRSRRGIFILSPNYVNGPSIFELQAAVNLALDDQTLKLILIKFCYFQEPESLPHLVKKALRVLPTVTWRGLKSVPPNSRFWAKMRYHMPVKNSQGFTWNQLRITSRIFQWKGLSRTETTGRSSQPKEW

[2] = target: T2, Biotinylated Recombinant Human PD-1/CD279-Fc Chimera, carrier-free, Biolegend #789406 (human, UniProt Q15116 25-167, biotinylated (site not stated)); test: ELISA; antibody coated, biotinylated human PD-1-Fc titrated
T2 construct: Bought reagent; also called recombinant biotinylated human PD-1; human PD1/CD279 ligand; Fc part of the bought chimera not given; not described

[3] = target: T3, His-tagged human PD1, R&D #8986-PD (human, UniProt Q15116 25-167); test: BLI (Octet), antibody on AHC sensor, His-tagged human PD1 as analyte
T3 construct: Bought reagent; not shown: His tag

[4] = target: T2, Biotinylated Recombinant Human …; test: ELISA; antibody coated on the plate, biotinylated human PD-1-Fc titrated in solution (x axis), streptavidin-HRP, signal at 450 nm
[5] = target: T4, recombinant Human Fc gamma RI/CD64 Protein (R&D systems, 1257-FC-050, CF) (human, UniProt P12314 16-288); test: ELISA; antibody coated, Fc gamma receptor titrated
T4 construct: also called FcγRI/CD64; human Fc gamma receptor I (CD64)

[6] = target: T5, recombinant Human Fc gamma RIIIA/CD16a Protein (R&D systems, 4325-FC-050; CF) (human, UniProt P08637 17-208, limits assumed); test: ELISA; antibody coated, Fc gamma receptor titrated
T5 construct: also called FcγRIIIa/CD16; human Fc gamma receptor IIIa (CD16)

[7] = target: T6, recombinant biotinylated human FcRn (human, UniProt P55899 24-297; P61769 21-119, limits assumed, biotinylated (site not stated)); test: AlphaLISA competition at pH 6; competitor: human IgG on acceptor beads
T6 construct: also called human neonatal Fc receptor (FcRn); human Fc neonatal receptor

[8] = target: T7, recombinant Human Fc gamma RIIA/CD32a (H167) Protein (R&D systems, 9595-CD-050, CF) (human, UniProt P12318 36-218); test: ELISA; antibody coated, Fc gamma receptor titrated
T7 construct: also called FcγRIIa/CD32a; human Fc gamma receptors IIa
T7 sequence (looked up): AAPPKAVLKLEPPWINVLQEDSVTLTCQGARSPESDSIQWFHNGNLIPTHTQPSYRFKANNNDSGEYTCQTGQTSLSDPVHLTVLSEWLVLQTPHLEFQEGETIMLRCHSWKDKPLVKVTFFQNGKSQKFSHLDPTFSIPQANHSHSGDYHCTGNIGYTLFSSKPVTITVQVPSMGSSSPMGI

[9] = target: T8, recombinant Human Fc gamma RIIB/CD32b Avi-tag Protein (R&D systems, AVI1875-050, CF) (human, UniProt P31994 46-217); test: ELISA; antibody coated, Fc gamma receptor titrated
T8 construct: also called FcγRIIb/CD32b
T8 sequence (looked up): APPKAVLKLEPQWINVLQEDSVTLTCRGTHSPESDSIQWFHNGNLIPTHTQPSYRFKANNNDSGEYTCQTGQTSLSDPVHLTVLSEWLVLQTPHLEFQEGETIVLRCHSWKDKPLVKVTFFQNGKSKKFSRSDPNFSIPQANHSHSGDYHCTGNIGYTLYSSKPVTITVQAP

B1: IL-18 polypeptide C184 (E6R, V11I, C38A, K53A, T63A, C76A, C127A) (ligand)
chain: YFGKLRSKLSIIRNLNDQVLFIDQGNRPLFEDMTDSDARDNAPRTIFIISMYADSQPRGMAVAISVKCEKISTLSAENKIISFKEMNPPDNIKDTKSDIIFFQRSVPGHDNKMQFESSSYEGYFLAAEKERDLFKLILKKEDELGDRSIMFTVQNED
- EC50, HEK-Blue IL18R reporter assay [1]: 0.04 pM

B2: IL-18 polypeptide C140 (SEQ ID NO: 72; N-terminal 4xG, E6K, V11I, C38A, K53A, T63A, C76A, C127A) (ligand)
chain: GGGGYFGKLKSKLSIIRNLNDQVLFIDQGNRPLFEDMTDSDARDNAPRTIFIISMYADSQPRGMAVAISVKCEKISTLSAENKIISFKEMNPPDNIKDTKSDIIFFQRSVPGHDNKMQFESSSYEGYFLAAEKERDLFKLILKKEDELGDRSIMFTVQNED
- EC50, HEK-Blue IL18R reporter assay [1]: 2.5 pM

B3: IL-18 polypeptide C141 (SEQ ID NO: 71; N-terminal G, E6K, V11I, C38A, K53A, T63A, C76A, C127A) (ligand)
chain: GYFGKLKSKLSIIRNLNDQVLFIDQGNRPLFEDMTDSDARDNAPRTIFIISMYADSQPRGMAVAISVKCEKISTLSAENKIISFKEMNPPDNIKDTKSDIIFFQRSVPGHDNKMQFESSSYEGYFLAAEKERDLFKLILKKEDELGDRSIMFTVQNED
- EC50, HEK-Blue IL18R reporter assay [1]: 1.68 pM

B4: IL-18 polypeptide C142 (Y1M, E6K, V11I, C38A, K53A, T63A, C76A, C127A) (ligand)
chain: MFGKLKSKLSIIRNLNDQVLFIDQGNRPLFEDMTDSDARDNAPRTIFIISMYADSQPRGMAVAISVKCEKISTLSAENKIISFKEMNPPDNIKDTKSDIIFFQRSVPGHDNKMQFESSSYEGYFLAAEKERDLFKLILKKEDELGDRSIMFTVQNED
- EC50, HEK-Blue IL18R reporter assay [1]: 0.02 pM

B5: IL-18 polypeptide C192 (SEQ ID NO: 70; N-terminal G, E6K, V11I, C38A, M51G, K53A, T63A, C76A, C127A) (ligand)
chain: GYFGKLKSKLSIIRNLNDQVLFIDQGNRPLFEDMTDSDARDNAPRTIFIISGYADSQPRGMAVAISVKCEKISTLSAENKIISFKEMNPPDNIKDTKSDIIFFQRSVPGHDNKMQFESSSYEGYFLAAEKERDLFKLILKKEDELGDRSIMFTVQNED
- EC50, HEK-Blue IL18R reporter assay [1]: 14 pM

B6: LZM-009 (antibody, V domains shown)
VH: QVQLVQSGAEVKKPGASVKVSCKASGYTFTSYYMYWVRQAPGQGLEWMGGVNPSNGGTNFNEKFKSRVTITADKSTSTAYMELSSLRSEDTAVYYCARRDYRYDMGFDYWGQGTTVTVSS
VL: EIVLTQSPATLSLSPGERATISCRASKGVSTSGYSYLHWYQQKPGQAPRLLIYLASYLESGVPARFSGSGSGTDFTLTISSLEPEDFATYYCQHSRELPLTFGTGTKVEIK
notes: full antibody with an Fc region (K248, EU numbering); also called anti-PD-1 antibody LZM-009
- Kd [2]: 0.0407 nM
- Kd [3]: 23.5 nM
- koff [3]: 0.0077 s⁻¹
- kon [3]: 342000 M⁻¹ s⁻¹
- EC50 (read off the curve) [4]: ~0.06 nM

B7: Pembrolizumab/Keytruda (antibody, human IgG4 S228P, kappa)
heavy: not shown
light: EIVLTQSPATLSLSPGERATLSCRASKGVSTSGYSYLHWYQQKPGQAPRLLIYLASYLESGVPARFSGSGSGTDFTLTISSLEPEDFAVYYCQHSRDLPLTFGGGTKVEIKRTVAAPSVFIFPPSDEQLKSGTASVVCLLNNFYPREAKVQWKVDNALQSGNSQESVTEQDSKDSTYSLSSTLTLSKADYEKHKVYACEVTHQGLSSPVTKSFNRGEC
notes: also called Lambrolizumab; MK-3475
- Kd [5]: 0.593 nM
- Kd [6]: 1660 nM
- Kd [7]: 7.45 nM

B8: Durvalumab/Imfinzi (antibody, human IgG1, kappa)
heavy: EVQLVESGGGLVQPGGSLRLSCAASGFTFSRYWMSWVRQAPGKGLEWVANIKQDGSEKYYVDSVKGRFTISRDNAKNSLYLQMNSLRAEDTAVYYCAREGGWFGELAFDYWGQGTLVTVSSASTKGPSVFPLAPSSKSTSGGTAALGCLVKDYFPEPVTVSWNSGALTSGVHTFPAVLQSSGLYSLSSVVTVPSSSLGTQTYICNVNHKPSNTKVDKRVEPKSCDKTHTCPPCPAPEFEGGPSVFLFPPKPKDTLMISRTPEVTCVVVDVSHEDPEVKFNWYVDGVEVHNAKTKPREEQYNSTYRVVSVLTVLHQDWLNGKEYKCKVSNKALPASIEKTISKAKGQPREPQVYTLPPSREEMTKNQVSLTCLVKGFYPSDIAVEWESNGQPENNYKTTPPVLDSDGSFFLYSKLTVDKSRWQQGNVFSCSVMHEALHNHYTQKSLSLSPGK
light: EIVLTQSPGTLSLSPGERATLSCRASQRVSSSYLAWYQQKPGQAPRLLIYDASSRATGIPDRFSGSGSGTDFTLTISRLEPEDFAVYYCQQYGSLPWTFGQGTKVEIKRTVAAPSVFIFPPSDEQLKSGTASVVCLLNNFYPREAKVQWKVDNALQSGNSQESVTEQDSKDSTYSLSSTLTLSKADYEKHKVYACEVTHQGLSSPVTKSFNRGEC
notes: also called MEDI-4736
- Kd [5]: 2.34 nM
- Kd [8]: 160 nM
- Kd [6]: 234 nM
- Kd [9]: 233 nM
- Kd [7]: 8.31 nM

B9: Avelumab/Bavencio (antibody, human IgG1, lambda)
heavy: not shown
light: QSALTQPASVSGSPGQSITISCTGTSSDVGGYNYVSWYQQHPGKAPKLMIYDVSNRPSGVSNRFSGSKSGNTASLTISGLQAEDEADYYCSSYTSSSTRVFGTGTKVTVLGQPKANPTVTLFPPSSEELQANKATLVCLISDFYPGAVTVAWKADGSPVKAGVETTKPSKQSNNKYAASSYLSLTPEQWKSHRSYSCQVTHEGSTVEKTVAPTECS
notes: also called MSB-0010718C; PF-06834635
- Kd [7]: 5.36 nM
